Source: patent US20100119520A1 (US Dept. of Health and Human Services, published 2010)

Key:
[1] = target: T1, anthrax edema factor (EF) (Bacillus anthracis, UniProt P40136 34-800); test: Western blot of purified toxin proteins (SDS-PAGE) probed with the mAb
T1 sequence: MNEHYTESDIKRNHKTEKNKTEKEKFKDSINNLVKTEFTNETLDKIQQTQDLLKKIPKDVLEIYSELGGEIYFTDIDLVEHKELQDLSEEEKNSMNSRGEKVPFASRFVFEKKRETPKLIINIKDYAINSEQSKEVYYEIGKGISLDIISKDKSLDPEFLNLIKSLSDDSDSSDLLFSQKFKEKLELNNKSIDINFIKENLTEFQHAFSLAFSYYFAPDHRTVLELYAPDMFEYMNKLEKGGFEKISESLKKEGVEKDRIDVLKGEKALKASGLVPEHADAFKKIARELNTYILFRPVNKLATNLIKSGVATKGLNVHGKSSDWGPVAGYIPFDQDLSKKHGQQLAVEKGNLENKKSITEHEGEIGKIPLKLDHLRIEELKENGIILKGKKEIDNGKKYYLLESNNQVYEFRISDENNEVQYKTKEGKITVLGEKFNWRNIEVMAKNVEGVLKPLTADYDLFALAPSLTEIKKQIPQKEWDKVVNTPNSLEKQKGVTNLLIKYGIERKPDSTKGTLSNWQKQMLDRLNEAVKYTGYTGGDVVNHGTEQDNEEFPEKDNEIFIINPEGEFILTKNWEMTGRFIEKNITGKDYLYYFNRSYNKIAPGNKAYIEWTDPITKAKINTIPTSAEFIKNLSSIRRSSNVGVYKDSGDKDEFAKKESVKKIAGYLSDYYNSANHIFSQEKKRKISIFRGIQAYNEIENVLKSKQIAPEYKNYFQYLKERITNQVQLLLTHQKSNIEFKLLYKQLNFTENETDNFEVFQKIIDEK

[2] = target: anthrax protective antigen (PA), purified (Bacillus anthracis, UniProt P13423 30-764); test: Western blot of purified toxin proteins; PA as negative control
[3] = target: T2, anthrax lethal factor (LF) (Bacillus anthracis, UniProt P15917 34-809); test: cell-based or functional assay
T2 sequence: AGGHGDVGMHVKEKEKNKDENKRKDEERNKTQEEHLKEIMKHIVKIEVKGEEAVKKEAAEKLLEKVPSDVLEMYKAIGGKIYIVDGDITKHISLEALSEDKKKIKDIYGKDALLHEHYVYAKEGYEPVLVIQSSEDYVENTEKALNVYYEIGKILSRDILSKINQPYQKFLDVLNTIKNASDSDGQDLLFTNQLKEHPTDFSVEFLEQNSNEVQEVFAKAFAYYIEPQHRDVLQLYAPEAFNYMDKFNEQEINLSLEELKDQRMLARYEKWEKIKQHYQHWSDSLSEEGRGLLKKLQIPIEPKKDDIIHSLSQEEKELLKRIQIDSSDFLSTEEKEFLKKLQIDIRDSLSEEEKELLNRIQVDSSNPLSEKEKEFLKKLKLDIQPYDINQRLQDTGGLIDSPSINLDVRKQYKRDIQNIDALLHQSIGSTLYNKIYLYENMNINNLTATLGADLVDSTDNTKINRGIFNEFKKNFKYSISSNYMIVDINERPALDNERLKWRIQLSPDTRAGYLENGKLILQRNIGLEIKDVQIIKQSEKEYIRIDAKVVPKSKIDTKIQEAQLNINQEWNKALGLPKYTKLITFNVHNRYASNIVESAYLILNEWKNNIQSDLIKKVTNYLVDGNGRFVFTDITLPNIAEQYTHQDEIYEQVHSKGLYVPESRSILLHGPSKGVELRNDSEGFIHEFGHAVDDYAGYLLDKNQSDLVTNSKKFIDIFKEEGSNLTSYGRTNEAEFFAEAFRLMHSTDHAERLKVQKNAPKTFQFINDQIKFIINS

lysozyme = lysozyme (Gallus gallus (Chicken), UniProt P00698 19-147); test: ELISA, protein coated at 10 ug/ml
bovine serum albumin = target: T3, bovine serum albumin (bovine, UniProt P02769 25-607); test: ELISA, protein coated at 10 ug/ml
T3 construct: also called BSA

[4] = target: T2, anthrax lethal factor (LF); test: SPR (BIAcore 3000), LF immobilized on CM3 chip, Fab injected
[5] = target: T1, anthrax edema factor (EF); test: Western blot of purified toxin proteins (SDS-PAGE) probed with the mAb; remark: listed apart in the source
[6] = target: T1, anthrax edema factor (EF)
[7] = target: T2, anthrax lethal factor (LF); test: ELISA, LF coated at 5 ug/ml
[8] = target: T1, anthrax edema factor (EF); test: ELISA, EF coated at 5 ug/ml
[9] = target: T1, anthrax edema factor (EF); test: SPR (BIAcore), IgG immobilized on CM5 chip, recombinant EF injected, 1:1 model
[10] = target: T1, anthrax edema factor (EF); test: cell-based or functional assay

Chain of lysozyme (P00698 19-147 limits assumed): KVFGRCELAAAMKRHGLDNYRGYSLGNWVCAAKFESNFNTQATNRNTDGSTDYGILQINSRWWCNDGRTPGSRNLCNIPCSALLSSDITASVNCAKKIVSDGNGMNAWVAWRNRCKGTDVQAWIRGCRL
T3 sequence (P02769 25-607 limits assumed): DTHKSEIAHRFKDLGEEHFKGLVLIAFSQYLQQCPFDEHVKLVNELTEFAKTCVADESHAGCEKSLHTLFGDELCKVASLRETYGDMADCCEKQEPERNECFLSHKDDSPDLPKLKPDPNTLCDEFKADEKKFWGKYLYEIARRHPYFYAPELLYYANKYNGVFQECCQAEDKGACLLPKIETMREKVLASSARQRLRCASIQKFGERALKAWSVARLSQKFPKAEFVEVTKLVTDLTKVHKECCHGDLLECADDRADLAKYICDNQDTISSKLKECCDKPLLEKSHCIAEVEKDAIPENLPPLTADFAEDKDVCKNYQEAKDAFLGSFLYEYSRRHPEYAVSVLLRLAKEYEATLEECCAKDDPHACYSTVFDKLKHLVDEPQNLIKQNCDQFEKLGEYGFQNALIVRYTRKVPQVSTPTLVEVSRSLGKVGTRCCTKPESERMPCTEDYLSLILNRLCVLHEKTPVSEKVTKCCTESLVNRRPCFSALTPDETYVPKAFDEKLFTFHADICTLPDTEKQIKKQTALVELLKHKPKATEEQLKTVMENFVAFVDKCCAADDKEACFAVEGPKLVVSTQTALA
Chain of anthrax protective antigen (PA), purified (P13423 30-764 limits assumed): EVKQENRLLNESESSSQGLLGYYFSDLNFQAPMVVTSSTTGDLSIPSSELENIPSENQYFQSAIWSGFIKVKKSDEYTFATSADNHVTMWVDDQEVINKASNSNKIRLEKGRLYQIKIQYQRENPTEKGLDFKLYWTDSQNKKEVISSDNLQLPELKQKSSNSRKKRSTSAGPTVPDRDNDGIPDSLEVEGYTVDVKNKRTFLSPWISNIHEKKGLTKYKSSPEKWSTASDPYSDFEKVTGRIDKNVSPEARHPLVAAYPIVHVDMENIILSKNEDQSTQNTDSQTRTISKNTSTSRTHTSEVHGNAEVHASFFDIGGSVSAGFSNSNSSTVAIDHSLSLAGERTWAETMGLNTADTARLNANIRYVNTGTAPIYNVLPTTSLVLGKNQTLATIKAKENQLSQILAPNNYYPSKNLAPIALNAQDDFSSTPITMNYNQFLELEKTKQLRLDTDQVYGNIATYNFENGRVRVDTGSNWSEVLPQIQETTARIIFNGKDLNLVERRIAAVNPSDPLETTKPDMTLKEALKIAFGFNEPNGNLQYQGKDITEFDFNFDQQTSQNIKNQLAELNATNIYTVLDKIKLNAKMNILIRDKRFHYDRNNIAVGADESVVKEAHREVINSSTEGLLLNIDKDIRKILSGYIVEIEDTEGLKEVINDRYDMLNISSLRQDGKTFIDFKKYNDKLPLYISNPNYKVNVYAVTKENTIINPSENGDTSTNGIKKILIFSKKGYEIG

B1: anti-anthrax LF10E monoclonal antibody (IgG) (antibody, V domains shown)
VH: EVQLLESGGGLVKPGGSLRLTCAASGFTFSSYAMHWVRQAPEKGLEWVSSISGSGGGTWYADSVKGRFTISRDNSRNTLYLQLNSLRAEDTAVYYCARPKYTGYENPFDYWGQGTLVTVS
VL: ELQMTQSPSSLSASVGDRVTITCRASQDIRNYLAWYQQEPGKAPRLLIYYASKLQSGVPSRFSGRGSGTDYSLTISSLQPEDFATYYCQQYDSVPLTFGGGTKMEIKR
B1 was tested, and the binding result [1] was “no binding”, the binding result [2] was “no binding” and the “EC50 of neutralization of LT toxicity, RAW264.7 macrophage viability (MTT)” value [3] was 15.6 ng/mL. B1: no binding (lysozyme); no binding (bovine serum albumin).

B2: anti-anthrax LF10E Fab (Fab, V domains shown)
VH: EVQLLESGGGLVKPGGSLRLTCAASGFTFSSYAMHWVRQAPEKGLEWVSSISGSGGGTWYADSVKGRFTISRDNSRNTLYLQLNSLRAEDTAVYYCARPKYTGYENPFDYWGQGTLVTVS
VL: ELQMTQSPSSLSASVGDRVTITCRASQDIRNYLAWYQQEPGKAPRLLIYYASKLQSGVPSRFSGRGSGTDYSLTISSLQPEDFATYYCQQYDSVPLTFGGGTKMEIKR
For B2, the Kd [4] was 0.69 nM, the koff [4] was 0.00019 s⁻¹ and the kon [4] was 270000 M⁻¹ s⁻¹.

B3: anti-anthrax LF11H monoclonal antibody (IgG) (antibody, V domains shown)
VH: VQLLEQSGAEVKKPGESLKISCKGSGYSFTNYWIGWVRQMPGKGLEWMGIIYPDDSDTRYSPSFQGQVTISFDKSINTAYLQWSSLKASDTAIYYCARALWFRDWGKMDVWGKGTTVTVS
VL: ELQMTQSPSSLSASVGDRVTITCRASQGIRNDLGWYQQKPGKAPKLLIYAASSLQSGVPSRFSGSGSGTDFTLTISSLQPEDFATYYCLQDYTYPWTFGQGTKLEIKR
With B3 the binding result [5] was “no binding”, the binding result [2] was “no binding” and the “EC50 of neutralization of LT toxicity, RAW264.7 macrophage viability (MTT)” value [3] was 62600 ng/mL. B3: no binding (lysozyme); no binding (bovine serum albumin).

B4: anti-anthrax LF11H Fab (Fab, V domains shown)
VH: VQLLEQSGAEVKKPGESLKISCKGSGYSFTNYWIGWVRQMPGKGLEWMGIIYPDDSDTRYSPSFQGQVTISFDKSINTAYLQWSSLKASDTAIYYCARALWFRDWGKMDVWGKGTTVTVS
VL: ELQMTQSPSSLSASVGDRVTITCRASQGIRNDLGWYQQKPGKAPKLLIYAASSLQSGVPSRFSGSGSGTDFTLTISSLQPEDFATYYCLQDYTYPWTFGQGTKLEIKR
B4 was tested, and the Kd [4] was 7.4 nM, the koff [4] was 0.001 s⁻¹ and the kon [4] was 130000 M⁻¹ s⁻¹.

B5: anti-EF clone EF14H (antibody, V domains shown)
VH: VQLLEESGGGLVKPGGSLRLSCAASGFTFSNYSMNWVRQAPGKGLEWVGFIRTKAKGGTTEYAASVKGRFTISRDDSKSIAYLQMNSLKTEDTAVYYCTPAGIIIRLVTPIYYYYMDVWGKGTTVTVS
VL: AAELTQSPSSLSASVGDRVTITCRASQGIRNYLAWYQQKPGKVPKLLIYAASTLQSGVPSRFSGSGSGTDFTLTISSLQPEDVATYYCQKYSSAPFTFGPGTKVGIKR
B5 was tested, and the “EC50 (read off the curve)” value [6] was ~0.05 µg/mL, the binding result (lysozyme) was “no binding” and the binding result (bovine serum albumin) was “no binding”.

B6: anti-LF clone LF9D (antibody, V domains shown)
VH: EVQLLESGGGLVKPGGSLRLSCAASGFTFSSYAMHWVRQTPEKGLEWVSTISSIGGSTWYSDSVKGRFTISRDNSKNTLFLHMKSLRAEDTAVYYCARDFFSQVGWSTPNNWFDPWGQGTLVTVS
VL: AAELTQSPSTLSASVGDRVTITCRASQGIATYLNWYQQIPGKAPKLLIYAASTLESGVPSRFSGSGSGAEFTLTISSLQPGDFATYYCQQFYSMPLTFGGGTKVEIKR
B6: binds [7]; no binding (lysozyme); no binding (bovine serum albumin).

B7: anti-EF clone EF15A (antibody, V domains shown)
VH: VQLLEESGGGVVQPGRSLRLSCTASGFTFSNYGMQWVRQAPGKRLEWVAFISYSGSNKQYADSVRGRFTISRDNSKNILYLQMNSLRSEDTAVYYCARDSHYLDYLPDAFDYWGQGTVVTVS
VL: ELVMTQSPSLLSASVGDRVTITCRASQGISNYLAWFQQKPGKAPKRLIFTAYRLESGVPSRFSGSMSGTEFTLTISSLEPEDFATYYCLQHSAYPPTFGQGTKLEIKR
B7: no binding (lysozyme); no binding (bovine serum albumin); binds [8].

B8: anti-anthrax EF13D monoclonal antibody (IgG) (antibody, V domains shown)
VH: EVQLLESGAEVKKPGSSVKVSCKVSGGTFSSFGISWVRQAPGQGLEWMGLIIPILGTANYAQKFQGRLTITADESTSTVYMELSSLRSEDTAVYYCATDPYHNWGEWDLDYWGQGTLVTVS
VL: AAELTQSPSSLSASVGDRVSITCRASQSISNYLSWYQQKPGKAPQLLIYDASTLQSGVPSRFSGSGSGTDFTLTISSLQPEDFATYYCQCGYGTYPTFGGGTQVEIKR
For B8, the Kd [9] was 9.7 nM, the koff [9] was 0.0004 s⁻¹ and the kon [9] was 41200 M⁻¹ s⁻¹. For the same binder, the “EC50 of inhibition of ET-mediated cAMP production in RAW264.7 cells” value [10] was 28 ng/mL, the binding result (lysozyme) was “no binding” and the binding result (bovine serum albumin) was “no binding”.
